The results in this text go back to patent publication US20200095340A1.

To fix the notation:
B1: anti-DLL3 trispecific protein, DLL3 binder 2E01 (protein, part only; not given: anti-CD3 and anti-albumin domains, part only)
chain, part: EVQLVESGGGLVQPGGSLTLSCVASGSTSSINAMGWYRRAPFKQGELPAGISPDGTKAYADSAKVRFTISRDNAKNSVYLQMNSLRAEDTAVYYCYYFHTVCGTSMGYWGQGTLVTVSSGGGGSGGGSGGGGSGGGSHHHHHH
B2: anti-DLL3 trispecific protein, DLL3 binder 2E010 (protein, part only; not given: anti-CD3 and anti-albumin domains, part only)
chain, part: EVQLVESGGGLVQPGGSLTLSCVASGSTSSINAMAWYRRAPGKQRELVAGISSDGSKVYADSVKGRFTISRDNAKNSVYLQMNSLRAEDTAVYYCYYFHTVSGSSMRYWGQGTLVTVSSGGGGSGGGSGGGGSGGGSHHHHHH
B3: anti-DLL3 trispecific protein, DLL3 binder 2F11 (protein, part only; not given: anti-CD3 and anti-albumin domains, part only)
chain, part: B2 chain, part with T28V, A35G, A60K, H99R, R107G
B4: anti-DLL3 trispecific protein, DLL3 binder 2A04 (protein, part only; not given: CD3 binder and albumin binder, part only)
chain, part: B2 chain, part with A60T, H99R, V101T
B5: anti-DLL3 trispecific protein, DLL3 binder 4D011 (protein, part only; not given: CD3 binder and albumin binder, part only)
chain, part: EVQLVESGGGLVQPGGSLTLSCAASGSSVRFLSMAWYRQAPGKKRELVAGISVDGSTDYIDSVKGRFTISRDNAKNSVYLQMNSLRAEDTAVYYCYAYRWRTRYTYWGQGTLVTVSSGGGGSGGGSGGGGSGGGSHHHHHH
B6: anti-DLL3 trispecific protein, DLL3 binder 4C06 (protein, part only; not given: anti-CD3 fragment and anti-albumin sdAb, part only)
chain, part: B5 chain, part with G26N, R30S, F31K, V53A, D58A, R101S
B7: anti-DLL3 trispecific protein, DLL3 binder 3D07 (protein, part only; not given: anti-CD3 and anti-albumin domains, part only)
chain, part: B5 chain, part with V53A, R99S, R101T
B8: anti-DLL3 trispecific protein, DLL3 binder 4H11-M34L (protein, part only; not given: anti-CD3 and anti-albumin domains, part only)
chain, part: B5 chain, part with R30S, F31R, M34L, R101T, Y104L
B9: anti-DLL3 trispecific protein, DLL3 binder 4B07 (protein, part only; not given: anti-CD3 fragment and anti-albumin sdAb, part only)
chain, part: B5 chain, part with R30G, V53A, D58V, R101T
B10: anti-DLL3 trispecific protein, DLL3 binder 4B011 (protein, part only; not given: CD3 binder and albumin binder, part only)
chain, part: B5 chain, part with R30T, V53A, D58V, R101T, Y104G
B11: anti-DLL3 trispecific protein, DLL3 binder 4E02 (protein, part only; not given: anti-CD3 and anti-albumin domains, part only)
chain, part: B5 chain, part with S28Q, R30S, V53A, D58V, R101S
B12: anti-DLL3 trispecific protein, DLL3 binder 4H04 (protein, part only; not given: anti-CD3 fragment and anti-albumin sdAb, part only)
chain, part: B5 chain, part with R30K, I51V, V53A, R99E, R101T
B13: anti-DLL3 trispecific protein, DLL3 binder 1G06 (protein, part only; not given: anti-CD3 fragment and anti-albumin sdAb, part only)
chain, part: B2 chain, part with M34I, A35G, D61V, H99R, T100K, M106A
B14: anti-DLL3 trispecific protein, DLL3 binder 2H08 (protein, part only; not given: anti-CD3 fragment and anti-albumin domain, part only)
chain, part: B2 chain, part with A35G, V48A, S53K, V63A, H99R, M106S
B15: anti-DLL3 trispecific protein, DLL3 binder 1F09 (protein, part only; not given: CD3 binder and albumin binder, part only)
chain, part: B2 chain, part with S27N, A35G, D54N, H99R, S102T
B16: anti-DLL3 trispecific protein, DLL3 binder 2E08 (protein, part only; not given: anti-CD3 fragment and anti-albumin sdAb, part only)
chain, part: B2 chain, part with T28R, A35G, S53A, H99R, V101Q
B17: anti-DLL3 trispecific protein, DLL3 binder 1C08 (protein, part only; not given: CD3 fragment and albumin sdAb, part only)
chain, part: B2 chain, part with S30R, A35G, V48P, D61V, H99R, S105P
B18: anti-DLL3 trispecific protein, DLL3 binder 2F08 (protein, part only; not given: anti-CD3 fragment and anti-albumin domain, part only)
chain, part: B1 chain, part with T28K, F42G, G45R, P53S, D54N, A58V, H99R, C102L, G107R
B19: anti-DLL3 trispecific protein, DLL3 binder 1F08 (protein, part only; not given: anti-CD3 fragment and anti-albumin sdAb, part only)
chain, part: B2 chain, part with A60K, H99R, T100N
B20: anti-DLL3 trispecific protein, DLL3 binder 4G03 (protein, part only; not given: CD3 binder and albumin binder, part only)
chain, part: B5 chain, part with R30K, V53A, D61H, R101T, T102R
B21: anti-DLL3 trispecific protein, DLL3 binder 4B05 (protein, part only; not given: anti-CD3 fragment and anti-albumin domain, part only)
chain, part: B5 chain, part with S28R, R30S, V53A, S56H, R101T, Y106H
B22: anti-DLL3 trispecific protein, DLL3 binder 3D08 (protein, part only; not given: anti-CD3 fragment and anti-albumin sdAb, part only)
chain, part: B5 chain, part with V53A, D54N, R101T, T102N
B23: anti-DLL3 trispecific protein, DLL3 binder 3D09 (protein, part only; not given: anti-CD3 fragment and anti-albumin domain, part only)
chain, part: B5 chain, part with R30S, F31R, V53A, D54N, D58T, R101T, T105R
B24: anti-DLL3 trispecific protein, DLL3 binder 4H06 (protein, part only; not given: anti-CD3 and anti-albumin domains, part only)
chain, part: B5 chain, part with S27R, R30S, V53A, D58I, R101T
B25: anti-DLL3 trispecific protein, DLL3 binder 3E03 (protein, part only; not given: CD3 binder and albumin binder, part only)
chain, part: B5 chain, part with V53G, R101M
B26: anti-DLL3 trispecific protein, DLL3 binder 3B04 (protein, part only; not given: CD3 binder and albumin binder, part only)
chain, part: B5 chain, part with S28N, R30S, V53A, D54R, R99H, R101T
B27: anti-DLL3 trispecific protein, DLL3 binder 4D03 (protein, part only; not given: anti-CD3 fragment and anti-albumin domain, part only)
chain, part: B5 chain, part with V53A, D54T, R101T, T102R
B28: anti-DLL3 trispecific protein, DLL3 binder 4A08 (protein, part only; not given: CD3 binder and albumin binder, part only)
chain, part: B5 chain, part with R30S, V53A, D58N
B29: anti-DLL3 trispecific protein, DLL3 binder 4D02 (protein, part only; not given: CD3 fragment and albumin sdAb, part only)
chain, part: B5 chain, part with S28K, R30S, V53A, D54R, R99Q, R101T
B30: anti-DLL3 trispecific protein, DLL3 binder 3G011 (protein, part only; not given: anti-CD3 fragment and anti-albumin sdAb, part only)
chain, part: B5 chain, part with S28R, R30S, V53A, D58G, R101A
B31: anti-DLL3 trispecific protein, DLL3 binder 4H01 (protein, part only; not given: CD3 binder and albumin binder, part only)
chain, part: B5 chain, part with R30S, V53A, D54N, I60Y
B32: anti-DLL3 trispecific protein, DLL3 binder 4H05 (protein, part only; not given: anti-CD3 fragment and anti-albumin sdAb, part only)
chain, part: B5 chain, part with R30S, F31R, V53A, D54R, R101T, Y104S
B33: anti-DLL3 trispecific protein, DLL3 binder 3G02 (protein, part only; not given: CD3 binder and albumin binder, part only)
chain, part: B5 chain, part with R30S, V53A, S56R
B34: anti-DLL3 trispecific protein, DLL3 binder 4G07 (protein, part only; not given: anti-CD3 fragment and anti-albumin domain, part only)
chain, part: B5 chain, part with R30S, M34V, V53A, D54N, R101T, T102N
B35: anti-DLL3 trispecific protein, DLL3 binder 4A04 (protein, part only; not given: CD3 binder and albumin binder, part only)
chain, part: B5 chain, part with S28R, R30S, V53A, D54R, R101S
B36: anti-DLL3 trispecific protein, DLL3 binder 3B09 (protein, part only; not given: CD3 binder and albumin binder, part only)
chain, part: B5 chain, part with S28H, R30S, V53A, D54N, R101T, T105A

Substitutions are numbered along the chain they refer to. Names and notes keep the numbering of the source.

Chain of biotinylated human DLL3 protein expressed as a human IgG1 fusion protein (human) (Q9NYJ7 27-492): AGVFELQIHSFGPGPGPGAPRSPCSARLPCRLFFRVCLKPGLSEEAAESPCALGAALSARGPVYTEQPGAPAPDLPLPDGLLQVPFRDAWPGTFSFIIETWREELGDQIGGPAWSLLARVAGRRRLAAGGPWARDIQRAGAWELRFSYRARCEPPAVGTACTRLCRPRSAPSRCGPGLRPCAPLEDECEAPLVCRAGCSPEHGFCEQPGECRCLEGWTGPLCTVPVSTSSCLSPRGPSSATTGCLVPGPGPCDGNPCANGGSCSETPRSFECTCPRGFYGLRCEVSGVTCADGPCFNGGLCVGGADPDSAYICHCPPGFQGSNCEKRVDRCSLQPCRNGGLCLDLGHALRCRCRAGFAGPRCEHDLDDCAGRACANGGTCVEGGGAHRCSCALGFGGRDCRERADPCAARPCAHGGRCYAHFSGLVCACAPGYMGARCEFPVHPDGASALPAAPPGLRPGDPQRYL

The target of the first assay is human DLL3 on DMS-153 cells (human) (UniProt Q9NYJ7). Briefly: cell-based or functional assay.
Chain of human DLL3 on DMS-153 cells (human) (Q9NYJ7 27-618 limits assumed): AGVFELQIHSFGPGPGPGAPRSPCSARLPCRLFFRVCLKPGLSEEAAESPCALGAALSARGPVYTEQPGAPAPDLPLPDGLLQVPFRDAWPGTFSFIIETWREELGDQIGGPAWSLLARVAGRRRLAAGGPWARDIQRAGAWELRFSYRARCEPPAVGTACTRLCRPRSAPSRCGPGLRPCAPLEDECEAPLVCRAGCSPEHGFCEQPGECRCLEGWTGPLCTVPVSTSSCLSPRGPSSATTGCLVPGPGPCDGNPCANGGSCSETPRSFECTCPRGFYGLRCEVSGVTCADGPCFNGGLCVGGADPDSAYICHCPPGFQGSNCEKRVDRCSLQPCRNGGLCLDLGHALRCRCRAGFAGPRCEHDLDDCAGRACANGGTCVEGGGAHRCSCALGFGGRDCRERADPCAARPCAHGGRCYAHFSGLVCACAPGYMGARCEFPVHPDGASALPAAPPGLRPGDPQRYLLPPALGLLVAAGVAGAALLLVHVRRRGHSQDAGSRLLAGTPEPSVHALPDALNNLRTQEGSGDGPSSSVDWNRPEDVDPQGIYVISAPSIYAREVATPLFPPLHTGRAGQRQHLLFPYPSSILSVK
In turn, B1 showed a DMS-153 TDCC EC50 (conditioned medium, human T cells) of 0.033 nM.

Take B2: the DMS-153 TDCC EC50 (conditioned medium, human T cells) turned out to be 0.031 nM.

Consider B3, for which the DMS-153 TDCC EC50 (conditioned medium, human T cells) was 0.049 nM.

On to B4, for which the DMS-153 TDCC EC50 (conditioned medium, human T cells) was found to be 0.081 nM.

The molecule B5 yielded a TDCC EC50 (CHO expressed, purified protein; method of Example 2, DMS-153 cells) of 0.098 nM.

Turning to B6, the DMS-153 TDCC EC50 (conditioned medium, human T cells) came to 0.068 nM.

As to B7, the DMS-153 TDCC EC50 (conditioned medium, human T cells) was 0.061 nM.

Consider B8, for which the TDCC EC50 (CHO expressed, purified protein; method of Example 2, DMS-153 cells) was 0.13 nM.

Take B9: the DMS-153 TDCC EC50 (conditioned medium, human T cells) was determined as 0.067 nM.

As for B10, the DMS-153 TDCC EC50 (conditioned medium, human T cells) stood at 0.048 nM.

B11: the DMS-153 TDCC EC50 (conditioned medium, human T cells) came to 0.041 nM.

In turn, B12 registered a DMS-153 TDCC EC50 (conditioned medium, human T cells) of 0.051 nM.

A further assay concerns the target biotinylated human DLL3 protein expressed as a human IgG1 fusion protein (human) (UniProt Q9NYJ7). Put plainly: Octet, biotinylated human DLL3-IgG1 fusion on streptavidin tips, single 50 nM, conditioned medium (relative KD). Background: Biolayer interferometry detects binding as a change in optical thickness at a sensor tip.
Usually Kd stands for the concentration at which binding is half-saturated. Read a high Kd as a looser complex. With B13, the equilibrium dissociation constant (Kd) was 26 nM.

B14: the Kd was determined as 18 nM.

The molecule B15 gave a Kd of 35 nM.

For the molecule B16, the Kd turned out to be 17 nM.

B17 came in with a Kd of 25 nM.

The molecule B18 came in with a Kd of 20 nM.

Molecule B19 returned a dissociation constant (Kd) of 31 nM.

For the molecule B20, the Kd amounted to 20 nM.

B21 came in with a Kd of 18 nM.

The molecule B22 displayed a Kd of 17 nM.

B23 had a Kd of 32 nM.

B24 yielded a Kd of 18 nM.

Consider B25, for which the dissociation constant (Kd) was 20 nM.

Turning to B26, the Kd turned out to be 24 nM.

Molecule B27 had a Kd of 26 nM.

Take B28: the Kd amounted to 24 nM.

Take B29: the Kd is 30 nM.

The molecule B30 yielded a Kd of 17 nM.

Molecule B31 displayed a Kd of 21 nM.

B32: the Kd was determined as 64 nM.

B33 registered a Kd of 20 nM.

B34 had a Kd of 18 nM.

Take B35: the Kd was found to be 35 nM.

B36 showed a Kd of 20 nM.
